Data reported in publication PMC8596989.

How the values were obtained:
[1] = target: Encapsulin from Mycobacterium smegmatis with Streptavidin-tag (^StrepEncSM) (Mycobacterium smegmatis) (UniProt A0R4H0); test: in-gel fluorescence against a standard curve
[2] = target: Encapsulin from Mycobacterium smegmatis with Streptavidin-tag (^StrepEncSM) (Mycobacterium smegmatis) (UniProt A0R4H0); test: FRET or BRET

HaloTag construct carrying an encapsulin localization sequence (HaloTag-ELS)
labeled cargo proteins per capsid (labeled cargo proteins per capsid) [1]: 6.6 | fluorophore binding sites per vesicle (fluorophore binding sites per vesicle) [2]: > 3
